The record followed here is patent US20220298223A1 (KING S COLLEGE LONDON, published 2022).

Positions count from the first letter of the chain named.

The assay deals with T1, human CD19 expressed on LO68 tumor cells (human, UniProt P15391 20-556).
T1 construct: whole, on cells; also called CD19+ LO68 tumor cells; CD19-engineered LO68 tumor cells
T1 sequence (looked up): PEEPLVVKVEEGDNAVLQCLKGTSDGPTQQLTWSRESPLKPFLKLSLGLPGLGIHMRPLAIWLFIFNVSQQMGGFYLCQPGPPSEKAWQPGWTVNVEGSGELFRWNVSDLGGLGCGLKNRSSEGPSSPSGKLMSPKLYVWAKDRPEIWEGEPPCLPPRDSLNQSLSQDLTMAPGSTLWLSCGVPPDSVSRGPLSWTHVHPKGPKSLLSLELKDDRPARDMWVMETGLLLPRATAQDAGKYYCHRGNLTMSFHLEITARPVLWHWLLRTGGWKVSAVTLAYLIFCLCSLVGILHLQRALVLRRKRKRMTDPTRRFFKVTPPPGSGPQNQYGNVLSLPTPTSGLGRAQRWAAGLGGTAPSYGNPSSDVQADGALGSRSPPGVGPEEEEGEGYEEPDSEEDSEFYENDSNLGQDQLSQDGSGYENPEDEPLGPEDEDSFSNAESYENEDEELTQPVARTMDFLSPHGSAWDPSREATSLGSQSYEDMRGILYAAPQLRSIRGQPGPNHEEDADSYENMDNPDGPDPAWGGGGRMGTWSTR
In words: z-Movi microfluidic chip, CAR T cells on a monolayer of CD19+ LO68 tumor cells, force ramp, percent bound T cells. The protocol: CD19-engineered LO68 tumor cells were seeded in a z-Movi microfluidic chip and cultured for 16 hours. The next day, flow sorted CAR-T cells were serially flowed in the chips and incubated with the target cells for 5 minutes prior to initializing a 3-minute linear force ramp. Cell detachment was determined using post-experiment using image analysis techniques.
Increasing fluidic force was applied and the percentage of bound T-cells was determined (median, n=3). […] Data are presented as median rForce which is the relative force required to elicit cell detachment, calibrated to […] polystyrene beads. Since data were not normally distributed, they are presented as median rForce which is the relative force required to elicit cell detachment and calibrated to […] polystyrene beads. […] Data shown are mean±standard error (n=11 runs, 3 independent donors). […] For clarity, a single representative run for one healthy donor is plotted in which each dot represents a single cell.

B1: G02 second generation CAR (F-2 with the second glycine of FMC63 VH CDR3 substituted by alanine), expressed on human T cells (other)
chain: DIQMTQTTSSLSASLGDRVTISCRASQDISKYLNWYQQKPDGTVKLLIYHTSRLHSGVPSRFSGSGSGTDYSLTISNLEQEDIATYFCQQGNTLPYTFGGGTKLEITGGGGSGGGGSGGGGSEVKLQESGPGLVAPSQSLSVTCTVSGVSLPDYGVSWIRQPPRKGLEWLGVIWGSETTYYNSALKSRLTIIKDNSKSQVFLKMNSLQTDDTAIYYCAKHYYYGASYAMDYWGQGTSVTVSSAAAIEVEQKLISEEDLLDNEKSNGTIIHVKGKHLCPSPLFPGPSKPFWVLVVVGGVLACYSLLVTVAFIIFWVRSKRSRLLHSDYMNMTPRRPGPTRKHYQPYAPPRDFAAYRSRVKFSRSADAPAYQQGQNQLYNELNLGRREEYDVLDKRRGRDPEMGGKPRRKNPQEGLYNELQKDKMAEAYSEIGMKGERRRGKGHDGLYQGLSTATKDTYDALHMQALPPR
notes: CAR on transduced human T cells; also called FMC63(G02)
As to B1, the binding result is “binds”.

B2: Y03 second generation CAR (F-2 with the third tyrosine of FMC63 VH CDR3 substituted by alanine), expressed on human T cells (other)
chain: B1 chain with Y223A, A225G
notes: CAR on transduced human T cells; also called FMC63(Y03)
With B2, the binding result was “binds”.

B3: Y01 second generation CAR (F-2 with the first tyrosine of FMC63 VH CDR3 substituted by alanine), expressed on human T cells (other)
chain: B1 chain with Y221A, A225G
notes: CAR on transduced human T cells; also called FMC63(Y01)
B3: the binding result is given as “binds”.

B4: Y04 second generation CAR (F-2 with the fourth tyrosine of FMC63 VH CDR3 substituted by alanine), expressed on human T cells (other)
chain: B1 chain with A225G, Y227A
notes: CAR on transduced human T cells; also called FMC63(Y04)
Turning to B4, the binding result is “binds”.
